Molecular target: IGF-1 receptor (UniProt P08069)
Experiment: cell-based or functional assay

Sequence of UniProt P08069 (P08069 31-1367): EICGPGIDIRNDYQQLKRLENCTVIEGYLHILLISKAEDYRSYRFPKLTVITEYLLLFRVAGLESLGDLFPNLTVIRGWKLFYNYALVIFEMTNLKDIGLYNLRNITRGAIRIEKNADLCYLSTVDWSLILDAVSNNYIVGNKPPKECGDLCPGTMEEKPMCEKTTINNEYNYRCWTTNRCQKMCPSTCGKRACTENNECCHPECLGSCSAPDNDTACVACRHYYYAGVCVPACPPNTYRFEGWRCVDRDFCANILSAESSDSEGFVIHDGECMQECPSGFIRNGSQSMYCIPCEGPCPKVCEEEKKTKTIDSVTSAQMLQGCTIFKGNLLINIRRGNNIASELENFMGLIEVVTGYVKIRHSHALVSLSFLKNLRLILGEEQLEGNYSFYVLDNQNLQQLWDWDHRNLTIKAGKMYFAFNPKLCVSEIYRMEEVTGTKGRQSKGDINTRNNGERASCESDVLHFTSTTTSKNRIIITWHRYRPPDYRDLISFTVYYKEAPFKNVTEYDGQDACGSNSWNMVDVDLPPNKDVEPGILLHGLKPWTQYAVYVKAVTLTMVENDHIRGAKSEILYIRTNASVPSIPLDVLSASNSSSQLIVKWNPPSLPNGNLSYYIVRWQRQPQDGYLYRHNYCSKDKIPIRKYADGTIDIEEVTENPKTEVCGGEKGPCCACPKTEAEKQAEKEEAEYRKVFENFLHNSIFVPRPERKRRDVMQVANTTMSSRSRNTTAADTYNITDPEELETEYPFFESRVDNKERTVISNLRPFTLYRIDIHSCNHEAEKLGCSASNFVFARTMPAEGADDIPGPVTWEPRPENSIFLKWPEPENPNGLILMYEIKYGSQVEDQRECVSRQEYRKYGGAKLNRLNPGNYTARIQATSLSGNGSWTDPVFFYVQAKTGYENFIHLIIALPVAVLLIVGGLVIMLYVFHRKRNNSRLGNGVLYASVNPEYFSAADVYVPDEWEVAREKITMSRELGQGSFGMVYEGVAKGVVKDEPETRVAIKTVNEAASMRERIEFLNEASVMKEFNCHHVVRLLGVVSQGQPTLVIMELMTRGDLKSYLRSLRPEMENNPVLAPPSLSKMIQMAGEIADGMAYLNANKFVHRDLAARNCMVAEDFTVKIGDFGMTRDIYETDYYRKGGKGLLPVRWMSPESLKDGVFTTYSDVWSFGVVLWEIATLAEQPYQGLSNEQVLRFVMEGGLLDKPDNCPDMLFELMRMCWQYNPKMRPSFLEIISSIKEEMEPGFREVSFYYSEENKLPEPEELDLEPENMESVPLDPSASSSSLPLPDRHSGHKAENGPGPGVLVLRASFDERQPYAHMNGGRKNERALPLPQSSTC

## IGF-1 (LR3) (ligand)
  pAKT EC50 (concentration needed to achieve the half maximal level of pAKT signaling), healthy iPSC-derived cardiomyocytes, pAKT ELISA: 0.73

Source: US20220009991A1
